B1: H6-tTF219-cys-C′: tTF219 with (His)6 and a Cys after amino acid 219; SEQ ID NO:3 (protein)
chain: HHHHHHAMALVPRGSGTTNTVAAYNLTWKSTNFKTILEWEPKPVNQVYTVQISTKSGDWKSKCFYTTDTECDLTDEIVKDVKQTYLARVFSYPAGNVESTGSAGEPLYENSPEFTPYLETNLGQPTIQSFEQVGTKVNVTVEDERTLVRRNNTFLSLRDVFGKDLIYTLYYWKSSSSGKKTAKTNTNEFLIDVDKGENYCFSVQAVIPSRTVNRKSTDSPVECMGQEKGEFREC
B2: “standard” tTF: “standard” tTF219 preparation obtained from Dr. Thomas Edgington (The Scripps Research Institute) (protein)
chain: GSGTTNTVAAYNLTWKSTNFKTILEWEPKPVNQVYTVQISTKSGDWKSKCFYTTDTECDLTDEIVKDVKQTYLARVFSYPAGNVESTGSAGEPLYENSPEFTPYLETNLGQPTIQSFEQVGTKVNVTVEDERTLVRRNNTFLSLRDVFGKDLIYTLYYWKSSSSGKKTAKTNTNEFLIDVDKGENYCFSVQAVIPSRTVNRKSTDSPVECMGQEKGEFRE
B3: tTF220-cys-C′: tTF220-cys-C′, tested beside H6-tTF220-cys-C′ (FIG. 6) (protein)
chain: GSGTTNTVAAYNLTWKSTNFKTILEWEPKPVNQVYTVQISTKSGDWKSKCFYTTDTECDLTDEIVKDVKQTYLARVFSYPAGNVESTGSAGEPLYENSPEFTPYLETNLGQPTIQSFEQVGTKVNVTVEDERTLVRRNNTFLSLRDVFGKDLIYTLYYWKSSSSGKKTAKTNTNEFLIDVDKGENYCFSVQAVIPSRTVNRKSTDSPVECMGQEKGEFREIC
B4: H6-tTF220-cys-C′: tTF219 mutated to carry Ile-Cys after amino acid 219; SEQ ID NO:6 (protein)
chain: HHHHHHAMALVPRGSGTTNTVAAYNLTWKSTNFKTILEWEPKPVNQVYTVQISTKSGDWKSKCFYTTDTECDLTDEIVKDVKQTYLARVFSYPAGNVESTGSAGEPLYENSPEFTPYLETNLGQPTIQSFEQVGTKVNVTVEDERTLVRRNNTFLSLRDVFGKDLIYTLYYWKSSSSGKKTAKTNTNEFLIDVDKGENYCFSVQAVIPSRTVNRKSTDSPVECMGQEKGEFREIC
B5: H6-tTF221-cys-C′: tTF219 mutated to carry Ile-Phe-Cys after amino acid 219; SEQ ID NO:7 (protein)
chain: HHHHHHAMALVPRGSGTTNTVAAYNLTWKSTNFKTILEWEPKPVNQVYTVQISTKSGDWKSKCFYTTDTECDLTDEIVKDVKQTYLARVFSYPAGNVESTGSAGEPLYENSPEFTPYLETNLGQPTIQSFEQVGTKVNVTVEDERTLVRRNNTFLSLRDVFGKDLIYTLYYWKSSSSGKKTAKTNTNEFLIDVDKGENYCFSVQAVIPSRTVNRKSTDSPVECMGQEKGEFREIFC
B6: H6-tTF221-cys-C′ dimer: chemically conjugated dimer of SEQ ID NO:7 (protein)
chain: B5 chain
modifications: chemically conjugated dimer
B7: IgG-H6—N′-cys-tTF219 (conjugate)
chain: HHHHHHAMALVPRGSCGTTNTVAAYNLTWKSTNFKTILEWEPKPVNQVYTVQISTKSGDWKSKCFYTTDTECDLTDEIVKDVKQTYLARVFSYPAGNVESTGSAGEPLYENSPEFTPYLETNLGQPTIQSFEQVGTKVNVTVEDERTLVRRNNTFLSLRDVFGKDLIYTLYYWKSSSSGKKTAKTNTNEFLIDVDKGENYCFSVQAVIPSRTVNRKSTDSPVECMGQEKGEFRE
modifications: left off: large carriers
B8: tTF221-cys-C′: tTF221-cys-C′, tested beside H6-tTF221-cys-C′ (FIG. 7) (protein)
chain: GSGTTNTVAAYNLTWKSTNFKTILEWEPKPVNQVYTVQISTKSGDWKSKCFYTTDTECDLTDEIVKDVKQTYLARVFSYPAGNVESTGSAGEPLYENSPEFTPYLETNLGQPTIQSFEQVGTKVNVTVEDERTLVRRNNTFLSLRDVFGKDLIYTLYYWKSSSSGKKTAKTNTNEFLIDVDKGENYCFSVQAVIPSRTVNRKSTDSPVECMGQEKGEFREIFC
B9: H6—N′-cys-tTF219: tTF219 with (His)6 and a Cys in front of the N′-terminus; SEQ ID NO:2 (protein)
chain: B7 chain
B10: H6—N′ cys-tTF219 dimer: chemically conjugated dimer of SEQ ID NO:2 (protein)
chain: B7 chain
modifications: chemically conjugated dimer
B11: Fab′-H6—N′-cys-tTF219 (conjugate)
chain: B7 chain
modifications: left off: another chain or arm of the molecule; large carriers

tested on: citrated mouse plasma; assay: In vitro coagulation assay: tTF constructs localized on A20 lymphoma cells via bispecific antibody B21-2/10H10; format: cell-based; settings: A20 cells coated with B21-2/10H10; FIG. 5-8, 15
Procedure: This assay was used to verify that tTF, various derivatives and mutants thereof, and immunoglobulin-tTF conjugates acquire coagulation inducing activity once localized at a cell surface. A20 lymphoma cells (I-A^d positive) (2×10^6 cells/ml, 50 μl) were incubated for 1 h at room temperature with a bispecific antibody (50 μg/ml, 25 μl) consisting of a Fab′ arm of the B21-2 antibody directed against I-A^d linked to a Fab′ arm of the 10H10 antibody directed against a non-inhibitory epitope on tTF. The cells were washed at room temperature and varying concentrations of tTF, derivatives or mutants thereof, or immunoglobulin-tTF conjugates were added for 1 hour at room temperature. The bispecific antibody captures the tTF or tTF linked to immunoglobulin, bringing it into close approximation to the cell surface, where coagulation can proceed.
The cells were washed again at room temperature, resuspended in 75 μl of PBS and warmed to 37° C. […] The time for the first fibrin strands to form was recorded. Clotting time was plotted against tTF concentration and curves compared with standard curves prepared using standard tTF219 preparations.

Molecule	concentration applied to the cells at which plasma coagulated in 50 seconds [nM]
B1	3
B2	3
B3	0.5
B4	0.5
B5	0.5
B6	4
B7	5
B8	0.5

same assay, conditions: A20 cells coated with B21-2/10H10; FIG. 5-8, 15; listed as H6-tTF221-cys-C′ monomer

Molecule	concentration applied to the cells at which plasma coagulated in 50 seconds [nM]
B5	1

same assay, conditions: localized on A20 cells via B21-2/10H10

Molecule	fold less active than tTF219 at inducing coagulation of plasma [fold]
B6	4
B7	5

same assay, conditions: plasma coagulation

Molecule	coagulation-inducing activity once localized on A20 cells via B21-2/10H10, in words (compared with tTF219)
B1	as active as tTF
B3	as active as tTF219
B4	as active as tTF219
B5	as active as tTF219
B9	as active as tTF
B10	as active as tTF219 itself
B8	as active as tTF219

tested on: factor X; assay: Factor Xa production assay (chromogenic substrate S-2765) with constructs localized on A20 cells; format: biochemical; settings: presence of Factors II, VII and IX, B21-2/10H10, FIG. 17
Procedure: The assay measures factor X to Xa conversion rate by means of a chromophore-generating substrate (S-2765) for factor Xa.
A20 cells (2×10^7 cells) were suspended in 10 ml medium containing 0.2% w/v sodium azide. To 2.5 ml cell suspension were added 6.8 μg of B21-2/10H10 “capture” bispecific antibody for 50 minutes at room temperature. The cells were washed and resuspended in 2.5 ml medium containing 0.2% w/v sodium azide. The tTF and immunoglobulin-tTF conjugates dissolved in the same medium were distributed in 100 μl volumes at a range of concentrations into wells of 96-well microtiter plates. To the wells was then added 100 μl of the cell/bispecific antibody suspension. The plates were incubated for 50 minutes at room temperature.
The plates were centrifuged, the supernatants were discarded and the cell pellets were resuspended in 250 μl of Wash Buffer (150 mM NaCl: 50 mM Tris-HCl, pH 8; 0.2% w/v bovine serum albumin). The cells were washed again and cells resuspended in 100 μl of a 12.5-fold dilution of Proplex T (Baxter, Inc.) containing Factors II, VII, IX and X in Dilution Buffer (Wash Buffer supplemented with 12.5 mM calcium chloride). Plates were incubated at 37° C. for 30 minutes. To each well was added Stop Solution (12.5 mM sodium ethylenediaminetetracetic acid (EDTA)) in wash buffer. Plates were centrifuged. […] The optical density of each solution was measured at 409 nm. […]

Molecule	fold less active than H6—N′-cys-tTF219 at inducing Xa formation [fold]	activity at inducing Xa formation compared with H6—N′-cys-tTF219
B7	2	
B11		as active as H6—N′-cys-tTF219 itself

Reference: patent US7951356B1, “Tissue factor compositions and kits for coagulation and tumor treatment” (Board of Regents, The University of Texas System, priority 1997, dated 2011)
